Laboratory results from paper PMC6450660.

Target: PI3KC3 complex II (PI3KC3-C2): VPS34, VPS15, BECN1, UVRAG (human) (UniProt Q8NEB9)
Sequence (Q8NEB9 whole entry, chain 1 of 4): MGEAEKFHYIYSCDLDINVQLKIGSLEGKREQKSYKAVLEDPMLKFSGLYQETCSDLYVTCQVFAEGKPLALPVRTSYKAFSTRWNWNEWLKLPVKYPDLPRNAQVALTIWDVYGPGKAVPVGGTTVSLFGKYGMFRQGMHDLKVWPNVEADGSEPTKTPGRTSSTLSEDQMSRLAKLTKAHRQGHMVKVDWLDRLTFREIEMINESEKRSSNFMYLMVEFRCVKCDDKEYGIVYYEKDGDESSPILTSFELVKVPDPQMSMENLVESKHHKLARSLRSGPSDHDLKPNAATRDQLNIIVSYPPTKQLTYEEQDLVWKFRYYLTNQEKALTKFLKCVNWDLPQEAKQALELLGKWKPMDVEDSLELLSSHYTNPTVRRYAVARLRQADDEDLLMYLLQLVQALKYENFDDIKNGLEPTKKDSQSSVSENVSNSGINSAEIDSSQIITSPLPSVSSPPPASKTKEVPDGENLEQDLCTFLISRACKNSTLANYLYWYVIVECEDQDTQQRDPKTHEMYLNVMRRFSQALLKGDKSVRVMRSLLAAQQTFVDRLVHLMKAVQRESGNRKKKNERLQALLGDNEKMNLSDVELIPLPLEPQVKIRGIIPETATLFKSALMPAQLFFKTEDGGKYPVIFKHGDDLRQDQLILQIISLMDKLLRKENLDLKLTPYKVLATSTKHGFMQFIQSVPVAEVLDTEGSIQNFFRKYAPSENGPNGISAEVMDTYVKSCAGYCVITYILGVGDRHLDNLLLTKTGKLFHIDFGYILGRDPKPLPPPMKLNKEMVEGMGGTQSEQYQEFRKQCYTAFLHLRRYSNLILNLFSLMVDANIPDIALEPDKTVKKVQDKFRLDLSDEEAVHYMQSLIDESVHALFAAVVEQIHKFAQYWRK
Sequence (Q99570 whole entry, chain 2 of 4, further chain): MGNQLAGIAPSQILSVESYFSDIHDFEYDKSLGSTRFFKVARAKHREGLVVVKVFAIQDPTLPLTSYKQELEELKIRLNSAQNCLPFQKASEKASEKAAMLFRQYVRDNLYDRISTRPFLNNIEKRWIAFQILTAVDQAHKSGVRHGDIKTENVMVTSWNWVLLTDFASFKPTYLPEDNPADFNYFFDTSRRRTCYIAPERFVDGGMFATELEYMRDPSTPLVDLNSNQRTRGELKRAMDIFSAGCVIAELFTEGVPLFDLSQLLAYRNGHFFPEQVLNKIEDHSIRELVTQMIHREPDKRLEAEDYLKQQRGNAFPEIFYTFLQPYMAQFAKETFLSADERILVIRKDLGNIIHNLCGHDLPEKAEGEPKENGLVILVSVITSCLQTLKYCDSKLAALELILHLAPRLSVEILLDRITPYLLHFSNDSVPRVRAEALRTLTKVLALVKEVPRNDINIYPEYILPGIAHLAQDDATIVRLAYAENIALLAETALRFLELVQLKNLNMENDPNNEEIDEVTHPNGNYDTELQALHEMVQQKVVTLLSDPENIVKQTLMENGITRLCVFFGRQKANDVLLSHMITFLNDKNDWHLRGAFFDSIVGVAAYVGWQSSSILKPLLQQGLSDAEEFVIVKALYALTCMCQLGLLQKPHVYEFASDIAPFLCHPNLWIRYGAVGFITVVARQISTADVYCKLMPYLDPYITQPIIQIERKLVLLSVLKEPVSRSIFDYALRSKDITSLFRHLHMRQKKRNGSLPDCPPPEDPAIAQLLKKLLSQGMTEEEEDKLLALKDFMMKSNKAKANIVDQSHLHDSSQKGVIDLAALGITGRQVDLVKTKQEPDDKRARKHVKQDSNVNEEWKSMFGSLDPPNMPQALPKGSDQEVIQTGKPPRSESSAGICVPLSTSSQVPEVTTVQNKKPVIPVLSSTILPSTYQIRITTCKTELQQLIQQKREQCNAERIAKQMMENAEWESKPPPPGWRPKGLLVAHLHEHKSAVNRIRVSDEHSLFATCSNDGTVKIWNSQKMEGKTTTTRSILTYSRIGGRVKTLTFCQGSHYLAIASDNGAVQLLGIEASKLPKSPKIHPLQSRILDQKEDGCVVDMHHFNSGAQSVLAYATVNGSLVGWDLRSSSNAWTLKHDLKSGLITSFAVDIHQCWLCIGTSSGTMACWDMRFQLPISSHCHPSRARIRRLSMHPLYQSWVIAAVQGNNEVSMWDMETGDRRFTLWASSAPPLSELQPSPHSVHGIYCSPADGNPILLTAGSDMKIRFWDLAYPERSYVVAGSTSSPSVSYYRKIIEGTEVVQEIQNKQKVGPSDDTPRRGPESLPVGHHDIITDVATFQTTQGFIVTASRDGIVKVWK
Sequence (Q14457 whole entry, chain 3 of 4, further chain): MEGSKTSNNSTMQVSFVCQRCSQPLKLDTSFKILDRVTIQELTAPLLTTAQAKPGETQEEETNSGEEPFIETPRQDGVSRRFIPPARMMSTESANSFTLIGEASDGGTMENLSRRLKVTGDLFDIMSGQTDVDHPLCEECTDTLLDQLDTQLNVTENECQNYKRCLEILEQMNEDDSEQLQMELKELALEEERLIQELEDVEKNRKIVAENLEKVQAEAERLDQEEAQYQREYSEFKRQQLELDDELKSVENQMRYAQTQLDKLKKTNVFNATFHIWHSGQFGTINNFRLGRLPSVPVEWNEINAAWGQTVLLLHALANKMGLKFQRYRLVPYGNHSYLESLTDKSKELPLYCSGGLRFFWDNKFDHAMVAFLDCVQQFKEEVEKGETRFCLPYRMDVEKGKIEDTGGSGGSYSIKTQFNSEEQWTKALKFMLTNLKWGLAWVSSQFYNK
Sequence (Q9P2Y5 whole entry, chain 4 of 4, further chain): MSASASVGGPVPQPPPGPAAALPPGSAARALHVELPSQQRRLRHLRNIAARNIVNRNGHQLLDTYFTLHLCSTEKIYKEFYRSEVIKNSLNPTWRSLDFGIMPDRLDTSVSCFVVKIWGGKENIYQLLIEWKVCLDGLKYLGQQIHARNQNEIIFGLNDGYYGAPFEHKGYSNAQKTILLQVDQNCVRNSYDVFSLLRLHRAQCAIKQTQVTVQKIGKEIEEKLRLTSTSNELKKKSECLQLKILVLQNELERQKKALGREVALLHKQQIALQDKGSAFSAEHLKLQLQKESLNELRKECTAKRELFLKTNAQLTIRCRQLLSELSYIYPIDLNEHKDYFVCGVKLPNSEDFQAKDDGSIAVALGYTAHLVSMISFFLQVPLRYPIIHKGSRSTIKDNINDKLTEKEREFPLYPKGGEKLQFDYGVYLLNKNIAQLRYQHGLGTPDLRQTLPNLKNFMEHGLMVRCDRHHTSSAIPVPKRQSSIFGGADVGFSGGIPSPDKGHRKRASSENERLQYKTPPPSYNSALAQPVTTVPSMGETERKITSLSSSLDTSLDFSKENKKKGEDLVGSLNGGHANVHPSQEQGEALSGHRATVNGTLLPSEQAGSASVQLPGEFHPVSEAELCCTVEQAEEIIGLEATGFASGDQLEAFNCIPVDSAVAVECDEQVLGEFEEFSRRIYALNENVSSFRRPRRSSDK

| PI3KC3-C2 lipid kinase activity on SUVs (ADP-Glo), complexes at 12.5 nM | Substance |
| --- | --- |
| 2 fold | MBP tagged Rubicon MR (middle region) (from UniProt Q92622 1-972) (domain or fragment) |
| 2 fold | MBP tagged Rubicon PIKBD (PI3KC3-C2 binding domain) (from UniProt Q92622 1-972) (domain or fragment) |
